Source: doi:10.1101/2024.10.13.617916

Biological target: KaiB labeled with 6-iodoacetamidofluorescein (KaiB-6IAF) (Synechococcus elongatus) (UniProt Q79PF5)
Test: other fluorescence titration

Chain of UniProt Q79PF5 (Q79PF5 whole entry): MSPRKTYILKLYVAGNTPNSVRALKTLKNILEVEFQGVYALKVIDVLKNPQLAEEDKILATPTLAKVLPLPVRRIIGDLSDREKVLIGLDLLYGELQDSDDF

B1: KaiC (natural protein)
chain: MTSAEMTSPNNNSEHQAIAKMRTMIEGFDDISHGGLPIGRSTLVSGTSGTGKTLFSIQFLYNGIIEFDEPGVFVTFEETPQDIIKNARSFGWDLAKLVDEGKLFILDASPDPEGQEVVGGFDLSALIERINYAIQKYRARRVSIDSVTSVFQQYDASSVVRRELFRLVARLKQIGATTVMTTERIEEYGPIARYGVEEFVSDNVVILRNVLEGERRRRTLEILKLRGTSHMKGEYPFTITDHGINIFPLGAMRLTQRSSNVRVSSGVVRLDEMCGGGFFKDSIILATGATGTGKTLLVSRFVENACANKERAILFAYEESRAQLLRNAYSWGMDFEEMERQNLLKIVCAYPESAGLEDHLQIIKSEINDFKPARIAIDSLSALARGVSNNAFRQFVIGVTGYAKQEEITGLFTNTSDQFMGAHSITDSHISTITDTIILLQYVEIRGEMSRAINVFKMRGSWHDKAIREFMISDKGPDIKDSFRNFERIISGSPTRITVDEKSELSRIVRGVQEKGPES
- decrease of KaiB-6IAF fluorescence intensity at 3.5 uM KaiC: 60%
- maximal quenching of KaiB-6IAF: 40%
